{
  "source": "patent US20050142634",
  "tested_on": "modulator of non-genomic activity of nuclear receptors (MNAR)",
  "data": [
    {"substance": "cSrc", "values": [
      {"measurement": "cSrc enzymatic activity (acid denatured enolase as a substrate, [32P]-γATP, SDS-PAGE autoradiography)", "value": "MNAR itself strongly stimulates cSrc enzymatic activity"}
    ]}
  ]
}
